The data set deals with T1, RAD51AP1 WT (UniProt Q96B01 1-352).
T1 sequence: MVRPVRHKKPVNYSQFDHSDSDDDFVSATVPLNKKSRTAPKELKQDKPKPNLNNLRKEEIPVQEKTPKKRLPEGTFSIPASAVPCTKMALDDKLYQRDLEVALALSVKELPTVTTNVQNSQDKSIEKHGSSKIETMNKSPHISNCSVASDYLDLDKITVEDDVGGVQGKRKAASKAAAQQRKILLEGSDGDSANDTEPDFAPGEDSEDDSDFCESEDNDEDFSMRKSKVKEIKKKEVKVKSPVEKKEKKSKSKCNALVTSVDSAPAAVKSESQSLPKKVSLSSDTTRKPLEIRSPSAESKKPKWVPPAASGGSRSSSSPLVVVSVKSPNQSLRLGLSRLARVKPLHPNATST
The data set can be described thus: EMSA. For orientation: A gel shift assay detects complexes by their altered migration in electrophoresis.

B1: 63-nt ssRNA (ssRNA)
RNA: AACUUGGUCUGACAGUUACCAAUGCUUAAUCAGUGAGGCACCUAUCUCAGCGAUCUGUCUAUU
Take B1: the binding result is on record as “binds”.

B2: 50-nt DNA-RNA hybrid (DNA:RNA)
DNA: ATCATCACCATAACGTCGATGTATCAACTTCGATTAGTCACACCAATTAA
RNA: UUAAUUGGUGUGACUAAUCGAAGUUGAUACAUCGACGUUAUGGUGAUGAU
B2: the binding result is on record as “binds”.

Source of the values: paper PMC8855348.
